Assay results from paper PMC9132474 (Science Advances, 2022).

Target: the molecule itself
Test: cryo-EM structure

B1: human sodium-proton exchanger 3 (NHE3/SLC9A3) (natural protein, UniProt P48764 26-834, looked up)
chain: GGVEVEPGGAHGESGGFQVVTFEWAHVQDPYVIALWILVASLAKIGFHLSHKVTSVVPESALLIVLGLVLGGIVWAADHIASFTLTPTVFFFYLLPPIVLDAGYFMPNRLFFGNLGTILLYAVVGTVWNAATTGLSLYGVFLSGLMGDLQIGLLDFLLFGSLMAAVDPVAVLAVFEEVHVNEVLFIIVFGESLLNDAVTVVLYNVFESFVALGGDNVTGVDCVKGIVSFFVVSLGGTLVGVVFAFLLSLVTRFTKHVRIIEPGFVFIISYLSYLTSEMLSLSAILAITFCGICCQKYVKANISEQSATTVRYTMKMLASSAETIIFMFLGISAVNPFIWTWNTAFVLLTLVFISVYRAIGVVLQTWLLNRYRMVQLEPIDQVVLSYGGLRGAVAFALVVLLDGDKVKEKNLFVSTTIIVVFFTVIFQGLTIKPLVQWLKVKRSEHREPRLNEKLHGRAFDHILSAIEDISGQIGHNYLRDKWSHFDRKFLSRVLMRRSAQKSRDRILNVFHELNLKDAISYVAEGERRGSLAFIRSPSTDNVVNVDFTPRSSTVEASVSYLLRENVSAVCLDMQSLEQRRRSIRDAEDMVTHHTLQQYLYKPRQEYKHLYSRHELTPTEDEKQDREIFHRTMRKRLESFKSTKLGLNQNKKAAKLYKRERAQKRRNSSIPNGKLPMESPAQNFTIKEKDLELSDTEEPPNYDEEMSGGIEFLASVTKDTASDSPAGIDNPVFSPDEALDRSLLARLPPWLSPGETVVPSQRARTQIPYSPGTFCRLMPFRLSSKSVDSFLQADGPEERPPAALPESTHM
stoichiometry N: 2
